Where a chain is given by its changes, count along the chain named.
Tests used:
Experiment in all cases: pull-down; 2 μg GST fusion protein on glutathione beads with 2 μg His-tagged Arl4A in 1 ml binding buffer (20 mM Tris-HCl pH 8.0, 150 mM NaCl, 5 mM MgCl2, 1 mM EDTA, 1 mM DTT, 10% glycerol, 1% Triton X-100), 1 h at 4 °C; anti-His blot
Details in all cases: both partners purified
His-tagged Arl4A WT = target: T1, His-tagged Arl4A WT (UniProt P40617 1-200)
T1 construct: Arl4A, wild type; also called His-Arl4A; source: recombinant, purified (Ni-NTA resin)
T1 sequence (looked up): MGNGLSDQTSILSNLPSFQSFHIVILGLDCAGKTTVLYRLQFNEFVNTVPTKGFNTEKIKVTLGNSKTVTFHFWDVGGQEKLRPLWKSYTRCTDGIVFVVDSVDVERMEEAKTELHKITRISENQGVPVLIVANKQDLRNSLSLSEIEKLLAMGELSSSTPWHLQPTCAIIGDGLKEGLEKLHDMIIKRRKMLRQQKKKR

His-tagged Arl4A Q79L = target: T2, His-tagged Arl4A Q79L (UniProt P40617 1-200, Q79L)
T2 construct: Arl4A, mutant Q79L; source: recombinant, purified (Ni-NTA resin)
T2 sequence (looked up): T1 sequence (looked up) with Q79L

His-tagged Arl4A T51N = target: T3, His-tagged Arl4A T51N (UniProt P40617 1-200, T51N)
T3 construct: Arl4A, mutant T51N; also called His-Arl4A T51N; source: recombinant, purified (Ni-NTA resin)
T3 sequence (looked up): T1 sequence (looked up) with T51N

binding result (His-tagged Arl4A WT): binds
binding result (His-tagged Arl4A Q79L): binds
binding result (His-tagged Arl4A T51N): binds
B1: GST-VPS36 (201–386) (domain or fragment, UniProt Q86VN1 201-386, looked up)
chain: KIKDKQGDITEDETIRFKSYLLSMGIANPVTRETYGSGTQYHMQLAKQLAGILQVPLEERGGIMSLTEVYCLVNRARGMELLSPEDLVNACKMLEALKLPLRLRVFDSGVMVIELQSHKEEEMVASALETVSEKGSLTSEEFAKLVGMSVLLAKERLLLAEKMGHLCRDDSVEGLRFYPNLFMTQS
notes: source: E. coli BL21, purified on glutathione Sepharose 4B beads

From PMC10687025, “Endosomal Arl4A attenuates EGFR degradation by binding to the ESCRT-II component VPS36” (Nature Communications, 2023)
